Assay [1] concerns the target GST-human CD81-LEL (human) (UniProt P60033). Put plainly: ELISA, plate coated with GST-CD81-LEL, 30-fold concentrated HCVpp, detection with 2C1 mAb, GST background subtracted, relative to wt (Cp7) HCVpp. A general note: ELISA stands for enzyme-linked immunosorbent assay.
Assay [2] shares this target. Description: ELISA, plate coated with GST-hCD81-LEL, eE2 detected with anti-human-Fc.
Assay [3] has as its target human CD81 (co-receptor on Huh-7.5 cells) (human) (UniProt P60033). Description: cell-based or functional assay.

We go through five substances from patent US20140105931A1.

Several values for one entry are separate records, joined by “and”; a condition that tells them apart may be missing. Identical values can stand only once.

As to “HCVpp carrying E2 C6A (from UniProt P26660 384-750; P26660 192-383)”, in assay [1], the percentage of CD81 binding relative to the wild type was 14.2%.

The substance “eE2-C6A (Fc-tagged, cell supernatant) (from UniProt P26660 384-664) (Fc fusion)” yielded a binding capacity relative to wild type eE2 in assay [2] below 20%. For “purified eE2 (Fc tag removed) (from UniProt P26660 384-664)”, the blocking of HCVcc (Cp7) infectivity of Huh-7.5 cells in assay [3] was 60% and 70%. On to “purified eE2-C6A (Fc tag removed) (from UniProt P26660 384-664)”, for which the blocking of HCVcc (Cp7) infectivity of Huh-7.5 cells in assay [3] was found to be 25%.

Regarding “purified eE2-C17S (from UniProt P26660 384-664)”, in assay [3], the blocking of HCVcc (Cp7) infectivity of Huh-7.5 cells was 60% and 70%.
